Laboratory results: patent publication CN106554420A (SHANGHAI UNION BIOPHARM CO LTD; LI JUN, dated 2017)

Assays:
[1] = target: T1, huPCSK9-His，重组人PCSK9胞外区His融合蛋白 (human, UniProt Q8NBP7 31-692, biotin-labelled in the ELISA and in the LDL-R blocking assay (sites not given)); assay: cell-based or functional assay
[2] = target: T1, huPCSK9-His，重组人PCSK9胞外区His融合蛋白; assay: ELISA, biotin-labelled PCSK9-His captured on neutravidin-coated plate
[3] = target: T2, cyPCSK9，猕猴PCSK9胞外区His融合蛋白 (猕猴 (macaque), UniProt A8T662 31-692, biotin-labelled in the ELISA (sites not given)); assay: as above
T2 construct: Bought (Novoprotein CA87); The printed entry includes the His tag

[4] = target: T1, huPCSK9-His，重组人PCSK9胞外区His融合蛋白; assay: BLI (ForteBio), chF3-9 captured on anti-human Fc (AHC) sensor, PCSK9 in solution, 1:1 global fit
[5] = target: T2, cyPCSK9，猕猴PCSK9胞外区His融合蛋白; assay: as above

T1 sequence (Q8NBP7 other isoform, or with tags, fused parts or gaps limits assumed): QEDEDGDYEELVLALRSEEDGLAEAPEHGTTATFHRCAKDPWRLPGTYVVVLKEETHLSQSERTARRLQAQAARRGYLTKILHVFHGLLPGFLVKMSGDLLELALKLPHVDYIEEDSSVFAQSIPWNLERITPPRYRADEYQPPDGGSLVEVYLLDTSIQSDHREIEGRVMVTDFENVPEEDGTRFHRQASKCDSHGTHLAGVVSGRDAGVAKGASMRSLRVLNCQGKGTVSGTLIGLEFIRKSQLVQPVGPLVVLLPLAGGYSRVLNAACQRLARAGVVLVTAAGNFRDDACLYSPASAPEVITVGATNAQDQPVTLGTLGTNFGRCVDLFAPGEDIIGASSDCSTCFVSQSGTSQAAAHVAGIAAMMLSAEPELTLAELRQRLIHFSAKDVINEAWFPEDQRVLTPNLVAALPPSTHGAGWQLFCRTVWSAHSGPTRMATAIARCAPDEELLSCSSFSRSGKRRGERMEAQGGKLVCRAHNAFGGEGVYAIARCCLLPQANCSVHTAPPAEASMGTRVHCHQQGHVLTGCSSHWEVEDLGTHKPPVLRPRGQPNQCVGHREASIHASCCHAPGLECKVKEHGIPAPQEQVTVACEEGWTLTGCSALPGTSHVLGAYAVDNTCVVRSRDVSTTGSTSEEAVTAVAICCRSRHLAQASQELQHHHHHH
T2 sequence (A8T662 other isoform, or with tags, fused parts or gaps limits assumed, form in doubt): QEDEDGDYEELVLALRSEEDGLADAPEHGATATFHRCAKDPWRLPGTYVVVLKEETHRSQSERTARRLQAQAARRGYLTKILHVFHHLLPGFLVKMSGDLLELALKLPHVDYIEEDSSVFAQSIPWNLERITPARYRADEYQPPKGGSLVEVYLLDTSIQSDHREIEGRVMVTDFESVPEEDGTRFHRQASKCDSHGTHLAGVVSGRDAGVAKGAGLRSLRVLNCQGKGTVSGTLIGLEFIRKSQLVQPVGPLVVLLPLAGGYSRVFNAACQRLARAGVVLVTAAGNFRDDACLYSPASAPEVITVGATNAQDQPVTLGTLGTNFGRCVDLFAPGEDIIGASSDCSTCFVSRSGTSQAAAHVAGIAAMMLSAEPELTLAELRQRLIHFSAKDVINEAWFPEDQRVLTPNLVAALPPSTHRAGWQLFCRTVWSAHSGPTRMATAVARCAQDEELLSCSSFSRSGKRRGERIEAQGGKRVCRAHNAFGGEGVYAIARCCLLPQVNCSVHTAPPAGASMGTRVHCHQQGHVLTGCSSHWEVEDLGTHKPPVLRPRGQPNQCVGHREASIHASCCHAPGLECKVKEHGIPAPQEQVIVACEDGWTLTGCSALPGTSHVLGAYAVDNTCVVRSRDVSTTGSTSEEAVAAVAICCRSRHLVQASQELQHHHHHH

B1: 鼠单抗mF3-9 (antibody, V domains shown)
VH: QVQLQQSGAELVRPGSSVKISCKASGYSFSSYWMNWVKQRPGQGLEWIGQIYPGDGDTNFNGKFKGKATLTADKSSSTAYMQLSSLTSEDSAVYFCGNYDYDGEIPYWGQGTTLTVSS
VL: DIFLTQSPAILSVSPGERVNFSCRASQTIGTSLHWYQQRTNGSPRLLIKYASESISGIPSRFSGSGSGTEFTLRINSVESEDIADYYCQQSSKWPLTFGQGTKVEIK
notes: Mouse hybridoma monoclonal antibody; also called 鼠单抗F3-9; 抗体F3-9
- 有效活性浓度(EC50), antagonism of PCSK9 inhibition of LDL uptake by HepG2 cells [1]: 10 nM
- EC50 [2]: 0.68 nM
- EC50 [3]: 0.62 nM

B2: 人-鼠嵌合型F3-9抗体(chF3-9) (antibody, IgG2, V domains shown)
VH: QVQLQQSGAELVRPGSSVKISCKASGYSFSSYWMNWVKQRPGQGLEWIGQIYPGDGDTNFNGKFKGKATLTADKSSSTAYMQLSSLTSEDSAVYFCGNYDYDGEIPYWGQGTTLTVSS
VL: DIFLTQSPAILSVSPGERVNFSCRASQTIGTSLHWYQQRTNGSPRLLIKYASESISGIPSRFSGSGSGTEFTLRINSVESEDIADYYCQQSSKWPLTFGQGTKVEIK
notes: also called F3-9嵌合抗体; 嵌合PCSK9抗体F3-9
- Kd [4]: 0.42 nM
- Kd [5]: 1.27 nM
